In this experiment the target is angiotensin-converting enzyme 2 (ACE2) (human) (UniProt Q9BYF1). Description: other fluorescence titration.

The values that follow come from article doi:10.1101/2020.11.02.20223404.

Chain of UniProt Q9BYF1 (Q9BYF1 18-805): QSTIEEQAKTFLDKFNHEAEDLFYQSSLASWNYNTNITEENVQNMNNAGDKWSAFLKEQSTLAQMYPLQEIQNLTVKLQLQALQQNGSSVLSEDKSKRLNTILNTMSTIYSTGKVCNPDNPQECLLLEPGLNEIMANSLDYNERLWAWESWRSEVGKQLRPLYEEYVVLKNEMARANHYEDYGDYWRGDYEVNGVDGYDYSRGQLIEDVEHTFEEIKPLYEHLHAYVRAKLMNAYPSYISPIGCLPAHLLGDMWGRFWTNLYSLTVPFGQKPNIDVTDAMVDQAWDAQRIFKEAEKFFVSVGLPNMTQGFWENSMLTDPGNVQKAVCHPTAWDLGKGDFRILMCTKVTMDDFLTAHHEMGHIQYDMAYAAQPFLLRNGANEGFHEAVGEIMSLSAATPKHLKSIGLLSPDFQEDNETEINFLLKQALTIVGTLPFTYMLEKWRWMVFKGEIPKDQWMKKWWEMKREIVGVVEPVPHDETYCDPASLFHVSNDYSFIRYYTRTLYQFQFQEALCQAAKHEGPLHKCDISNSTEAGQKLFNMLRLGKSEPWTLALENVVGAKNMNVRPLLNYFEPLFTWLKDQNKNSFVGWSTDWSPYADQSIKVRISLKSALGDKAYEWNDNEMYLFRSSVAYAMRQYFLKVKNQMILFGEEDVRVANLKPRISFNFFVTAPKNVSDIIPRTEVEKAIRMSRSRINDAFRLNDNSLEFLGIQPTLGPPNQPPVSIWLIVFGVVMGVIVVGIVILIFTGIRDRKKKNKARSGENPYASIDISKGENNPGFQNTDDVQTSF

The substance “SARS-CoV-1 spike receptor-binding domain (S RBD) (domain or fragment)” showed a ΔF/F0 of the 1130 nm SWCNT emission peak after 90 min, 10 mg/L of 88.4%.
